T1: ClC-3, endogenous, from solubilized mouse brain membranes (mouse, UniProt P51791 1-818, limits assumed)
T1 construct: Specificity control in the brain co-immunoprecipitation; also called CIC-3
T1 sequence (looked up): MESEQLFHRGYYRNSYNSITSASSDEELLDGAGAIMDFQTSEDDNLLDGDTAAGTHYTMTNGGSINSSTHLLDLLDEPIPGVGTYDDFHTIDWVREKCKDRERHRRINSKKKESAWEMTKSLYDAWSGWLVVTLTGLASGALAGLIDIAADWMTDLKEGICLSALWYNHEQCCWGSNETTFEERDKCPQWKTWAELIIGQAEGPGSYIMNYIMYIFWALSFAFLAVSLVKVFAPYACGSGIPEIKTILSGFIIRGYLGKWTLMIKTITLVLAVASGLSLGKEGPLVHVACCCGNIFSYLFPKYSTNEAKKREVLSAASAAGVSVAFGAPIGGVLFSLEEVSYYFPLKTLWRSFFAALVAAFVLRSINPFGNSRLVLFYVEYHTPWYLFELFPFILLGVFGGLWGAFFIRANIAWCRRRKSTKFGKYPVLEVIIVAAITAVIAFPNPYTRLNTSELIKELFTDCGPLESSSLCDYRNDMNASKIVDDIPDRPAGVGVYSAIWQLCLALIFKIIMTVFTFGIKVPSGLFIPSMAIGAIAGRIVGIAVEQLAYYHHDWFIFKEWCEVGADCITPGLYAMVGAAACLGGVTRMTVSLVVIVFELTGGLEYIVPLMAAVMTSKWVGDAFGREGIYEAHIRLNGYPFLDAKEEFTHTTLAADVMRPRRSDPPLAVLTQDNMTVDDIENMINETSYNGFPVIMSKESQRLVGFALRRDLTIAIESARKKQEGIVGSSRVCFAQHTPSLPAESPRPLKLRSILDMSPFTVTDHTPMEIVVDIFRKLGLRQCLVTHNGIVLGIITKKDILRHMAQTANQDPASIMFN

T2: lamp-2, endogenous, from solubilized mouse brain membranes (mouse, UniProt P17047 26-415, limits assumed)
T2 construct: Specificity control in the brain co-immunoprecipitation
T2 sequence (looked up): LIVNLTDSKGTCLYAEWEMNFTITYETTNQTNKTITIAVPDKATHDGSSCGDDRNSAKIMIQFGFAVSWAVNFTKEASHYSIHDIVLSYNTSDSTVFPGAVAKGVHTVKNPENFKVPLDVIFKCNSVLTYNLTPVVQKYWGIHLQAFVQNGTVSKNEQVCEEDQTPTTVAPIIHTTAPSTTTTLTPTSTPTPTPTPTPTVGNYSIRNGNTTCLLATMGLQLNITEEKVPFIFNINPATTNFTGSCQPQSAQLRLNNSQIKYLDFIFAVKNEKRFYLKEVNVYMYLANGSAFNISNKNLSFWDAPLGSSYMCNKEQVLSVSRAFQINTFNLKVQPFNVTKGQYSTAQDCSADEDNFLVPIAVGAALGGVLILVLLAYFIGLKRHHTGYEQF

T3: ClC-6, endogenous, from solubilized mouse brain membranes (mouse, UniProt O35454 1-870)
T3 construct: Specificity control in the brain co-immunoprecipitation; also called CIC-6
T3 sequence (looked up): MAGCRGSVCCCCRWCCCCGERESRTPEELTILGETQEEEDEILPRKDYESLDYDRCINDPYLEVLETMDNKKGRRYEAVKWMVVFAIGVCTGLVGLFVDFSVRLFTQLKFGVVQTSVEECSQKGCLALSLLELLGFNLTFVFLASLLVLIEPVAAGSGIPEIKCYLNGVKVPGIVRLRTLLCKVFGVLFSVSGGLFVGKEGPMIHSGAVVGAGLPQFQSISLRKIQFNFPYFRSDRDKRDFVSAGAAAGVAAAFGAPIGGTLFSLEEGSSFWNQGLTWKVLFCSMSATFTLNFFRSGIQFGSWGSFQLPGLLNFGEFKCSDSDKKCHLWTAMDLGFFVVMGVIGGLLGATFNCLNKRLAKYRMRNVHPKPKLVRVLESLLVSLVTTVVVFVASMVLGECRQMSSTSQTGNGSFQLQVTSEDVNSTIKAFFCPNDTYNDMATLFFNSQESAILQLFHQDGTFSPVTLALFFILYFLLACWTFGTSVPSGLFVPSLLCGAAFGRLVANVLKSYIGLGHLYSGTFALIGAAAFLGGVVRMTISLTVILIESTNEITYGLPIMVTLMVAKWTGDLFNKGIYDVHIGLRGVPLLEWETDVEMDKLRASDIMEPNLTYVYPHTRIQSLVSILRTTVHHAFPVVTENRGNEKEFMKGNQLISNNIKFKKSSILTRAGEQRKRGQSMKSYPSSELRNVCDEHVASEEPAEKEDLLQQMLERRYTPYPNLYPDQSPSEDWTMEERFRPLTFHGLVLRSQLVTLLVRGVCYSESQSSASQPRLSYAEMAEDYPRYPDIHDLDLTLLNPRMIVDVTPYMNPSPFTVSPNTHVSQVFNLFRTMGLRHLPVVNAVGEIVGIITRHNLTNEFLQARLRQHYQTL


Assays:
Ostm1 = test: Western blot of Ostm1 species after incubating fibroblasts with protease inhibitors; format: cell-based; conditions: fibroblasts incubated with protease inhibitor, FIG. 1 part (d)
[1] = molecular target: T1, ClC-3, endogenous, from solubilized …; test: co-immunoprecipitation from solubilized mouse brain membranes, Western blot
Description: (§1) ClC-7 and Ostm1 can be co-immunoprecipitated using endogenous material (FIG. part (d)) or overexpressed proteins (FIG. 6). […] Solubilized brain membranes from the genotypes indicated were directly loaded on the gel (input, lanes 1-3), or first immunoprecipitated with ClC-7 (lanes 4,5) or Ostm1 antibodies (lanes 6,7).
(§2) Ostm1 or ClC-7 antibodies were crosslinked to protein A sepharose by dimethylpimelimidate. Brain membranes were pelleted and solubilized in lysis buffer (MES buffered saline pH 6.5, 1% Triton X-100, 2.5 mM CaCl_2, 2.5 mM MgCl_2). Non-solubilized material was removed by centrifugation at 70,000×g. Samples were incubated with protein A sepharose-antibody complexes for 2 h at 4° C. and washed 4× with lysis buffer. After elution with 100 μl 0.1 M glycine/Cl, pH 2.8, samples were neutralized and denatured using SDS sample buffer. Equivalent amounts of lysate and precipitate were separated by SDS-PAGE.
(§3) Resulting Western blots were probed for the proteins indicated at right. Arrowheads, specific Ostm1 bands; *, non-specific bands. Equivalent amounts of lysates and precipitates were loaded.

[2] = molecular target: T2, lamp-2, endogenous, from solubilized …; test: as above
Description: as §1, §2, §3

[3] = molecular target: T3, ClC-6, endogenous, from solubilized …; test: as above
Description: as §1, §2, §3

Molecule	proportion of the large (~80 kD) Ostm1 species versus the smaller ones (Ostm1)	binding result [1]	binding result [2]	binding result [3]
CC(=O)N[C@@H](CC(C)C)C(=O)N[C@@H](CC(C)C)C(=O)N[C@H](C=O)CCCNC(=N)N [leupeptin]	increased the proportion of the large Ostm1 species			
Ostm1 (Osteopetrosis-associated transmembrane protein 1), endogenous, from solubilized mouse brain membranes (other, UniProt Q8BGT0 35-338, looked up, N-linked glycosylation of the luminal domain, Endogenous protein immunoprecipitated from Triton X-100 solubilized mouse brain membranes; also called product of the OSTM1 gene) ALPFTSSRHPGFADLLSEQQLLEVQDLTLSLLQGGGLGPLSLLPPDLPDLEPECRELLMDFANSSAELTACMVRSARPVRLCQTCYPLFQQVAIKMDNISRNIGNTSEGPRCGGSLLTADRMQIVLMVSEFFNSTWQEANCANCLTNNGEDLSNNTEDFLSLFNKTLACFEHNLQGHTYSLLPPKNYSEVCRNCKEAYKNLSLLYSQMQKLNGLENKAEPETHLCIDVEDAMNITRKLWSRTFNCSVTCSDTVSVVAVSVFILFLPVVFYLSSFLHSEQKKRKLILPKRLKSSTSFANIQENAT		no binding	no binding	no binding
